{"source": "patent US10745460B2", "about": "“Peptides and combination of peptides for use in immunotherapy against various tumors” (Immatics Biotechnologies GmbH, priority 2015, dated 2020)", "data": [{"biological_target": "HLA-A*02:01 (Homo sapiens, UniProt P04439, D140Y/D185E/D98H/E176V/E277Q/G131W/G231S/I119V/I121R/I166T/I218V/L300P/L318F/N151K/N90K/P208A/P217A/Q86G/Q94H/R138H/R169H/T345S)", "assay": "MHC binding assay: UV-ligand exchange with β2m ELISA (peptide exchange yield)", "conditions": "binding to HLA-A*02:01 evaluated by peptide exchange yield (UV-ligand exchange, β2m ELISA)", "from_the_text": "Candidate peptides for T cell based therapies according to the present invention were further tested for their MHC binding capacity (affinity). The individual peptide-MHC complexes were produced by UV-ligand exchange, where a UV-sensitive peptide is cleaved upon UV-irradiation, and exchanged with the peptide of interest as analyzed. Only peptide candidates that can effectively bind and stabilize the peptide-receptive MHC molecules prevent dissociation of the MHC complexes. To determine the yield of the exchange reaction, an ELISA was performed based on the detection of the light chain (β2m) of stabilized MHC complexes. The assay was performed as generally described in Rodenko et al. (Rodenko et al., 2006).\n96 well MAXISorp plates (NUNC) were coated over night with 2 ug/ml streptavidin in PBS at room temperature, washed 4× and blocked for 1 h at 37° C. in 2% BSA containing blocking buffer. Refolded HLA-A*02:01/MLA-001 monomers served as standards, covering the range of 15-500 ng/ml. Peptide-MHC monomers of the UV-exchange reaction were diluted 100 fold in blocking buffer. Samples were incubated for 1 h at 37° C., washed four times, incubated with 2 ug/ml HRP conjugated anti-β2m for 1 h at 37° C., washed again and detected with TMB solution that is stopped with […]. Absorption was measured at 450 nm. Candidate peptides that show a high exchange yield (preferably higher than 50%, most preferred higher than 75%) are generally preferred for a generation and production of antibodies or fragments thereof, and/or T cell receptors or fragments thereof, as they show sufficient avidity to the MHC molecules and prevent dissociation of the MHC complexes.", "values": [{"substance": "183 (ALSYILPYL; listed as Homo sapiens) [compound 183]", "Peptide exchange": "+++ (≥50 = +++)"}, {"substance": "272 (FVMEGEPPKL; listed as Homo sapiens) [compound 272]", "Peptide exchange": "++ (≥20% = ++)"}, {"substance": "220 (ALSELERVL; listed as Homo sapiens) [compound 220]", "Peptide exchange": "+++ (≥50 = +++)"}, {"substance": "216 (ALSTVTPRI; listed as Homo sapiens) [compound 216]", "Peptide exchange": "++ (≥20% = ++)"}, {"substance": "84 (FLLEREQLL; listed as Homo sapiens) [compound 84]", "Peptide exchange": "++++ (≥75% = ++++)"}, {"substance": "129 (KMASKVTQV; listed as Homo sapiens) [compound 129]", "Peptide exchange": "++ (≥20% = ++)"}, {"substance": "44 (AVFNLVHVV; listed as Homo sapiens) [compound 44]", "Peptide exchange": "+++ (≥50 = +++)"}, {"substance": "122 (SIIDTELKV; listed as Homo sapiens) [compound 122]", "Peptide exchange": "+++ (≥50 = +++)"}, {"substance": "132 (ALLNNVIEV; listed as Homo sapiens) [compound 132]", "Peptide exchange": "+++ (≥50 = +++)"}, {"substance": "248 (VLMQDSRLYL; listed as Homo sapiens) [compound 248]", "Peptide exchange": "+++ (≥50 = +++)"}, {"substance": "249 (YLYQILQGI; listed as Homo sapiens) [compound 249]", "Peptide exchange": "+++ (≥50 = +++)"}, {"substance": "251 (LLWGNLPEI; listed as Homo sapiens) [compound 251]", "Peptide exchange": "+++ (≥50 = +++)"}, {"substance": "105 (AMLASQTEA; listed as Homo sapiens) [compound 105]", "Peptide exchange": "++ (≥20% = ++)"}, {"substance": "98 (FVQEKIPEL; listed as Homo sapiens) [compound 98]", "Peptide exchange": "+++ (≥50 = +++)"}, {"substance": "58 (HLLGEGAFAQV; listed as Homo sapiens) [compound 58]", "Peptide exchange": "+++ (≥50 = +++)"}, {"substance": "111 (AQLEGKLVSI; listed as Homo sapiens) [compound 111]", "Peptide exchange": "+++ (≥50 = +++)"}, {"substance": "141 (NIDINNNEL; listed as Homo sapiens) [compound 141]", "Peptide exchange": "++ (≥20% = ++)"}, {"substance": "22 (LMYPYIYHV; listed as Homo sapiens) [compound 22]", "Peptide exchange": "+++ (≥50 = +++)"}, {"substance": "23 (ALLSPLSLA; listed as Homo sapiens) [compound 23]", "Peptide exchange": "+++ (≥50 = +++)"}, {"substance": "74 (GLAFLPASV; listed as Homo sapiens) [compound 74]", "Peptide exchange": "++ (≥20% = ++)"}, {"substance": "107 (RVLPGQAVTGV; listed as Homo sapiens) [compound 107]", "Peptide exchange": "++ (≥20% = ++)"}, {"substance": "166 (LLGDSSFFL; listed as Homo sapiens) [compound 166]", "Peptide exchange": "+++ (≥50 = +++)"}, {"substance": "94 (YLDEVAFML; listed as Homo sapiens) [compound 94]", "Peptide exchange": "+++ (≥50 = +++)"}, {"substance": "62 (SLVENIHVL; listed as Homo sapiens) [compound 62]", "Peptide exchange": "+++ (≥50 = +++)"}, {"substance": "254 (ALGDKFLLRV; listed as Homo sapiens) [compound 254]", "Peptide exchange": "++ (≥20% = ++)"}, {"substance": "100 (ALQSFEFRV; listed as Homo sapiens) [compound 100]", "Peptide exchange": "+++ (≥50 = +++)"}, {"substance": "68 (QLMNLIRSV; listed as Homo sapiens) [compound 68]", "Peptide exchange": "+++ (≥50 = +++)"}, {"substance": "93 (RLYGYFHDA; listed as Homo sapiens) [compound 93]", "Peptide exchange": "++ (≥20% = ++)"}, {"substance": "108 (FIANLPPELKA; listed as Homo sapiens) [compound 108]", "Peptide exchange": "+++ (≥50 = +++)"}, {"substance": "233 (SLFESLEYL; listed as Homo sapiens) [compound 233]", "Peptide exchange": "+++ (≥50 = +++)"}, {"substance": "237 (ALLEQTGDMSL; listed as Homo sapiens) [compound 237]", "Peptide exchange": "+++ (≥50 = +++)"}, {"substance": "89 (SLAETIFIV; listed as Homo sapiens) [compound 89]", "Peptide exchange": "+++ (≥50 = +++)"}, {"substance": "170 (FIAAVVEKV; listed as Homo sapiens) [compound 170]", "Peptide exchange": "++ (≥20% = ++)"}, {"substance": "47 (GLNGFNVLL; listed as Homo sapiens) [compound 47]", "Peptide exchange": "+++ (≥50 = +++)"}, {"substance": "87 (KLLSLLEEA; listed as Homo sapiens) [compound 87]", "Peptide exchange": "+++ (≥50 = +++)"}, {"substance": "124 (ALLLRLFTI; listed as Homo sapiens) [compound 124]", "Peptide exchange": "++ (≥20% = ++)"}, {"substance": "264 (TLHDQVHLL; listed as Homo sapiens) [compound 264]", "Peptide exchange": "++ (≥20% = ++)"}, {"substance": "253 (KLLAVIHEL; listed as Homo sapiens) [compound 253]", "Peptide exchange": "+++ (≥50 = +++)"}, {"substance": "155 (TLDSYLKAV; listed as Homo sapiens) [compound 155]", "Peptide exchange": "++ (≥20% = ++)"}, {"substance": "79 (TVLEEIGNRV; listed as Homo sapiens) [compound 79]", "Peptide exchange": "++ (≥20% = ++)"}, {"substance": "169 (ALADLSVAV; listed as Homo sapiens) [compound 169]", "Peptide exchange": "+++ (≥50 = +++)"}, {"substance": "234 (VLLNEILEQV; listed as Homo sapiens) [compound 234]", "Peptide exchange": "++++ (≥75% = ++++)"}, {"substance": "80 (VLTGQVHEL; listed as Homo sapiens) [compound 80]", "Peptide exchange": "+++ (≥50 = +++)"}, {"substance": "174 (ALYSGDLHAA; listed as Homo sapiens) [compound 174]", "Peptide exchange": "++ (≥20% = ++)"}, {"substance": "48 (KISDFGLATV; listed as Homo sapiens) [compound 48]", "Peptide exchange": "+++ (≥50 = +++)"}, {"substance": "11 (LLDPKTIFL; listed as Homo sapiens) [compound 11]", "Peptide exchange": "+++ (≥50 = +++)"}, {"substance": "193 (ALFHMNILL; listed as Homo sapiens) [compound 193]", "Peptide exchange": "+++ (≥50 = +++)"}, {"substance": "263 (SIIEYLPTL; listed as Homo sapiens) [compound 263]", "Peptide exchange": "+++ (≥50 = +++)"}, {"substance": "61 (ALYPKEITL; listed as Homo sapiens) [compound 61]", "Peptide exchange": "+++ (≥50 = +++)"}, {"substance": "99 (TLFGIQLTEA; listed as Homo sapiens) [compound 99]", "Peptide exchange": "+++ (≥50 = +++)"}, {"substance": "33 (TLDRNSLYV; listed as Homo sapiens) [compound 33]", "Peptide exchange": "++ (≥20% = ++)"}, {"substance": "52 (TIGIPFPNV; listed as Homo sapiens) [compound 52]", "Peptide exchange": "++ (≥20% = ++)"}, {"substance": "276 (RMPTVLQCV; listed as Homo sapiens) [compound 276]", "Peptide exchange": "+++ (≥50 = +++)"}, {"substance": "24 (KVWSDVTPL; listed as Homo sapiens) [compound 24]", "Peptide exchange": "+++ (≥50 = +++)"}, {"substance": "271 (VLIEYNFSI; listed as Homo sapiens) [compound 271]", "Peptide exchange": "+++ (≥50 = +++)"}, {"substance": "90 (AILNVDEKNQV; listed as Homo sapiens) [compound 90]", "Peptide exchange": "++ (≥20% = ++)"}, {"substance": "66 (AMFPDTIPRV; listed as Homo sapiens) [compound 66]", "Peptide exchange": "++ (≥20% = ++)"}, {"substance": "267 (YLLDMPLWYL; listed as Homo sapiens) [compound 267]", "Peptide exchange": "+++ (≥50 = +++)"}, {"substance": "281 (LLLESDPKVYSL; listed as Homo sapiens) [compound 281]", "Peptide exchange": "++ (≥20% = ++)"}, {"substance": "139 (IILENIQSL; listed as Homo sapiens) [compound 139]", "Peptide exchange": "+++ (≥50 = +++)"}, {"substance": "77 (ALYGNVQQV; listed as Homo sapiens) [compound 77]", "Peptide exchange": "+++ (≥50 = +++)"}, {"substance": "65 (SLSEKSPEV; listed as Homo sapiens) [compound 65]", "Peptide exchange": "++ (≥20% = ++)"}, {"substance": "190 (SLSTELFKV; listed as Homo sapiens) [compound 190]", "Peptide exchange": "+++ (≥50 = +++)"}, {"substance": "179 (TLGEIIKGV; listed as Homo sapiens) [compound 179]", "Peptide exchange": "+++ (≥50 = +++)"}, {"substance": "245 (ALLEEEEGV; listed as Homo sapiens) [compound 245]", "Peptide exchange": "++ (≥20% = ++)"}, {"substance": "208 (HLNNDRNPL; listed as Homo sapiens) [compound 208]", "Peptide exchange": "++ (≥20% = ++)"}, {"substance": "14 (YTFSGDVQL; listed as Homo sapiens) [compound 14]", "Peptide exchange": "+++ (≥50 = +++)"}, {"substance": "142 (LLDAAHASI; listed as Homo sapiens) [compound 142]", "Peptide exchange": "++ (≥20% = ++)"}, {"substance": "280 (HLWGHALFL; listed as Homo sapiens) [compound 280]", "Peptide exchange": "+++ (≥50 = +++)"}, {"substance": "284 (KLMDPGSLPPL; listed as Homo sapiens) [compound 284]", "Peptide exchange": "++ (≥20% = ++)"}, {"substance": "130 (QLYGSAITL; listed as Homo sapiens) [compound 130]", "Peptide exchange": "+++ (≥50 = +++)"}, {"substance": "49 (KLIGNIHGNEV; listed as Homo sapiens) [compound 49]", "Peptide exchange": "++ (≥20% = ++)"}, {"substance": "25 (LLWGHPRVALA; listed as Homo sapiens) [compound 25]", "Peptide exchange": "+++ (≥50 = +++)"}]}]}
